B1: CPEB3 Ribozyme (parent)
chain: GGGGGCCACAGCAGAAGCGUUCACGUCGCGGCCCCUGUCAGAUUCUGGUGAAUCUGCGAAUUCUGCUGU

Variants of: B1
Experiment: self-cleavage, relative activity (ratio to wild type); higher = more cleavage; co-transcriptional

Variant | self-cleavage
GGGGGCCACAGCAGAAGCGUUCACGUCGCGGCCCCUGUCAGAUUCUGGUGGCUCUGCGAAUUCUGCUGU | 0.94
GGGGGCCACAGCAGAAGCGUUCACGUCGCGGCCCCUGUCAGAUUCUGGUGGUUCUGCGAAUUCUGCUGU | 0.902
GGGGGCCACAGCAGAAGCGUUCACGUCGCGGCCCCUGUCAGAUUCUGGUGGAUCUGCGAAUUCUGCUGG | 1.03
GGGGGCCACAGCAGAAGCGUUCACGUCGCGGCCCCUGUCAGAUUCUGGUGGAUCUGCGAAUUCUGCUGA | 0.995
GGGGGCCACAGCAGAAGCGUUCACGUCGCGGCCCCUGUCAGAUUCUGGUGUACCUGCGAAUUCUGCUGU | 0.863
GGGGGCCACAGCAGAAGCGUUCACGUCGCGGCCCCUGUCAGAUUCUGGUGUAGCUGCGAAUUCUGCUGU | 0.825
GGGGGCCACAGCAGAAGCGUUCACGUCGCGGCCCCUGUCAGAUUCUGGUGGAUCUGCGAAUUCUGCUAU | 1.01
GGGGGCCACAGCAGAAGCGUUCACGUCGCGGCCCCUGUCAGAUUCUGGUGGAUCUGCGAAUUCUGCUCU | 0.911
GGGGGCCACAGCAGAAGCGUUCACGUCGCGGCCCCUGUCAGAUUCUGGUGGAUCUGCGAAUUCUGCUUU | 1.03
GGGGGCCACAGCAGAAGCGUUCACGUCGCGGCCCCUGUCAGAUUCUGGUGUAUCUGCGCAUUCUGCUGU | 0.645
GGGGGCCACAGCAGAAGCGUUCACGUCGCGGCCCCUGUCAGAUUCUGGUGUAUCUGCGUAUUCUGCUGU | 0.762
GGGGGCCACAGCAGAAGCGUUCACGUCGCGGCCCCUGUCAGAUUCUGGUGUAUCUGCGAAUUCUGCUGU | 0.994
GGGGGCCACAGCAGAAGCGUUCACGUCGCGGCCCCUGUCAGAUUCUGGUGGAUCUGCGAAUUCUGCUGU | 0.994
GGGGGCCACAGCAGAAGCGUUCACGUCGCGGCCCCUGUCAGAUUCUGGUGGAUCUGCGAAGUCUGCUGU | 0.85
GGGGGCCACAGCAGAAGCGUUCACGUCGCGGCCCCUGUCAGAUUCUGGUGGAUCUGCGAAAUCUGCUGU | 0.833
GGGGGCCACAGCAGAAGCGUUCACGUCGCGGCCCCUGUCAGAUUCUGGUGGAUCUGCGAAUUCUGCAGU | 0.967
GGGGGCCACAGCAGAAGCGUUCACGUCGCGGCCCCUGUCAGAUUCUGGUGGAUCUGCGAAUUCUGCGGU | 1.01
GGGGGCCACAGCAGAAGCGUUCACGUCGCGGCCCCUGUCAGAUUCUGGUGGAUCUGCGAAUUCUGCCGU | 0.99
GGGGGCCACAGCAGAAGCGUUCACGUCGCGGCCCCUGUCAGAUUCUGGUGGAUCUGCCAAUUCUGCUGU | 1.01
GGGGGCCACAGCAGAAGCGUUCACGUCGCGGCCCCUGUCAGAUUCUGGUGGAUCUGCUAAUUCUGCUGU | 1.01
GGGGGCCACAGCAGAAGCGUUCACGUCGCGGCCCCUGUCAGAUUCUGGUGGAUCUGCGUAUUCUGCUGU | 0.859
GGGGGCCACAGCAGAAGCGUUCACGUCGCGGCCCCUGUCAGAUUCUGGUGUAUCUGCGAAUUGUGCUGU | 0.815
GGGGGCCACAGCAGAAGCGUUCACGUCGCGGCCCCUGUCAGAUUCUGGUGUAUCUGCGAAUUUUGCUGU | 0.996
GGGGGCCACAGCAGAAGCGUUCACGUCGCGGCCCCUGUCAGAUUCUGGUGGAUCUGCGAAUACUGCUGU | 0.98
GGGGGCCACAGCAGAAGCGUUCACGUCGCGGCCCCUGUCAGAUUCUGGUGGAUCUGCGAAUGCUGCUGU | 0.89
GGGGGCCACAGCAGAAGCGUUCACGUCGCGGCCCCUGUCAGAUUCUGGUGGAUCUGCGAAUCCUGCUGU | 0.884

Variant | self-cleavage
GGGGGCCACAGCAGAAGCGUUCACGUCGCGGCCCCUGUCAGAUUCUGGUGUAUCUGCGAGUUCUGCUGU | 0.891
GGGGGCCACAGCAGAAGCGUUCACGUCGCGGCCCCUGUCAGAUUCUGGUGUAUCUGCGACUUCUGCUGU | 0.378
GGGGGCCACAGCAGAAGCGUUCACGUCGCGGCCCCUGUCAGAUUCUGGUGUAUCUGCGAUUUCUGCUGU | 0.438
GGGGGCCACAGCAGAAGCGUUCACGUCGCGGCCCCUGUCAGAUUCUGGUGGACCUGCGAAUUCUGCUGU | 0.899
GGGGGCCACAGCAGAAGCGUUCACGUCGCGGCCCCUGUCAGAUUCUGGUGGAGCUGCGAAUUCUGCUGU | 0.839
GGGGGCCACAGCAGAAGCGUUCACGUCGCGGCCCCUGUCAGAUUCUGGUGGAACUGCGAAUUCUGCUGU | 0.981
GGGGGCCACAGCAGAAGCGUUCACGUCGCGGCCCCUGUCAGAUUCUGGUGGAUCUGCGAAUUAUGCUGU | 0.884
GGGGGCCACAGCAGAAGCGUUCACGUCGCGGCCCCUGUCAGAUUCUGGUGGAUCUGCGAAUUGUGCUGU | 0.772
GGGGGCCACAGCAGAAGCGUUCACGUCGCGGCCCCUGUCAGAUUCUGGUGGAUCUGCGAAUUUUGCUGU | 0.96
GGGGGCCACAGCAGAAGCGUUCACGUCGCGGCCCCUGUCAGAUUCUGGUGCAUCUGCGAAUUCUGCGGU | 0.993
GGGGGCCACAGCAGAAGCGUUCACGUCGCGGCCCCUGUCAGAUUCUGGUGCAUCUGCGAAUUCUGCAGU | 0.961
GGGGGCCACAGCAGAAGCGUUCACGUCGCGGCCCCUGUCAGAUUCUGGUGGAUCUGUGAAUUCUGCUGU | 0.321
GGGGGCCACAGCAGAAGCGUUCACGUCGCGGCCCCUGUCAGAUUCUGGUGGAUCUGAGAAUUCUGCUGU | 0.399
GGGGGCCACAGCAGAAGCGUUCACGUCGCGGCCCCUGUCAGAUUCUGGUGCAUCUGCGAAUCCUGCUGU | 0.76
GGGGGCCACAGCAGAAGCGUUCACGUCGCGGCCCCUGUCAGAUUCUGGUGCAUCUGCGAAUACUGCUGU | 0.901
GGGGGCCACAGCAGAAGCGUUCACGUCGCGGCCCCUGUCAGAUUCUGGUGGAUCUGCGAGUUCUGCUGU | 0.939
GGGGGCCACAGCAGAAGCGUUCACGUCGCGGCCCCUGUCAGAUUCUGGUGGAUCUGCGAUUUCUGCUGU | 0.589
GGGGGCCACAGCAGAAGCGUUCACGUCGCGGCCCCUGUCAGAUUCUGGUGUAUCUGCGAAUUCUGCUUU | 1.01
GGGGGCCACAGCAGAAGCGUUCACGUCGCGGCCCCUGUCAGAUUCUGGUGUAUCUGCGAAUUCUGCUCU | 1
GGGGGCCACAGCAGAAGCGUUCACGUCGCGGCCCCUGUCAGAUUCUGGUGUAUCUGCGAAUUCUGCUAU | 0.999
GGGGGCCACAGCAGAAGCGUUCACGUCGCGGCCCCUGUCAGAUUCUGGUGUAUCUGUGAAUUCUGCUGU | 0.388
GGGGGCCACAGCAGAAGCGUUCACGUCGCGGCCCCUGUCAGAUUCUGGUGUAUCUGGGAAUUCUGCUGU | 0.238
GGGGGCCACAGCAGAAGCGUUCACGUCGCGGCCCCUGUCAGAUUCUGGUGGAUCUGCGAAUUCCGCUGU | 0.949
GGGGGCCACAGCAGAAGCGUUCACGUCGCGGCCCCUGUCAGAUUCUGGUGGAUCUGCGAAUUCGGCUGU | 0.917
GGGGGCCACAGCAGAAGCGUUCACGUCGCGGCCCCUGUCAGAUUCUGGUGGAUCUGCGAAUUCAGCUGU | 0.991
GGGGGCCACAGCAGAAGCGUUCACGUCGCGGCCCCUGUCAGAUUCUGGUGGAUUUGCGAAUUCUGCUGU | 0.986

Variant | self-cleavage
GGGGGCCACAGCAGAAGCGUUCACGUCGCGGCCCCUGUCAGAUUCUGGUGGAUGUGCGAAUUCUGCUGU | 0.858
GGGGGCCACAGCAGAAGCGUUCACGUCGCGGCCCCUGUCAGAUUCUGGUGGAUAUGCGAAUUCUGCUGU | 0.854
GGGGGCCACAGCAGAAGCGUUCACGUCGCGGCCCCUGUCAGAUUCUGGUGGAUCUUCGAAUUCUGCUGU | 0.95
GGGGGCCACAGCAGAAGCGUUCACGUCGCGGCCCCUGUCAGAUUCUGGUGGAUCUGCGAAUUCUUCUGU | 0.872
GGGGGCCACAGCAGAAGCGUUCACGUCGCGGCCCCUGUCAGAUUCUGGUGGAUCUGCGAAUUCUACUGU | 0.948
GGGGGCCACAGCAGAAGCGUUCACGUCGCGGCCCCUGUCAGAUUCUGGUGGAUCUGCGAAUUCUCCUGU | 0.715
GGGGGCCACAGCAGAAGCGUUCACGUCGCGGCCCCUGUCAGAUUCUGGUGCAUCUGCGAAUUCUGCUGG | 1.01
GGGGGCCACAGCAGAAGCGUUCACGUCGCGGCCCCUGUCAGAUUCUGGUGCAUCUGCGAAUUCUGCUGC | 1.08
GGGGGCCACAGCAGAAGCGUUCACGUCGCGGCCCCUGUCAGAUUCUGGUGCAUCUGCGAAUUCUGCUGA | 1.05
GGGGGCCACAGCAGAAGCGUUCACGUCGCGGCCCCUGUCAGAUUCUGGUGUAUCUGCGAAUUCUGUUGU | 0.981
GGGGGCCACAGCAGAAGCGUUCACGUCGCGGCCCCUGUCAGAUUCUGGUGUAUCUGCGAAUUCUGGUGU | 0.752
GGGGGCCACAGCAGAAGCGUUCACGUCGCGGCCCCUGUCAGAUUCUGGUGUAUCUGCGAAUUCUGAUGU | 0.706
GGGGGCCACAGCAGAAGCGUUCACGUCGCGGCCCCUGUCAGAUUCUGGUGUAUCUGCUAAUUCUGCUGU | 0.954
GGGGGCCACAGCAGAAGCGUUCACGUCGCGGCCCCUGUCAGAUUCUGGUGUAUCUGCGAAUUCUACUGU | 0.889
GGGGGCCACAGCAGAAGCGUUCACGUCGCGGCCCCUGUCAGAUUCUGGUGUAUCUGCGAAUUCUUCUGU | 0.765
GGGGGCCACAGCAGAAGCGUUCACGUCGCGGCCCCUGUCAGAUUCUGGUGCAUCUGCGAAUUCCGCUGU | 0.787
GGGGGCCACAGCAGAAGCGUUCACGUCGCGGCCCCUGUCAGAUUCUGGUGCAUCUGCGAAUUCAGCUGU | 0.866
GGGGGCCACAGCAGAAGCGUUCACGUCGCGGCCCCUGUCAGAUUCUGGUGUAUCUGCGAAAUCUGCUGU | 0.932
GGGGGCCACAGCAGAAGCGUUCACGUCGCGGCCCCUGUCAGAUUCUGGUGGAUCCGCGAAUUCUGCUGU | 0.839
GGGGGCCACAGCAGAAGCGUUCACGUCGCGGCCCCUGUCAGAUUCUGGUGGAUCGGCGAAUUCUGCUGU | 0.63
GGGGGCCACAGCAGAAGCGUUCACGUCGCGGCCCCUGUCAGAUUCUGGUGUGUCUGCGAAUUCUGCUGU | 0.982
GGGGGCCACAGCAGAAGCGUUCACGUCGCGGCCCCUGUCAGAUUCUGGUGUCUCUGCGAAUUCUGCUGU | 0.969
GGGGGCCACAGCAGAAGCGUUCACGUCGCGGCCCCUGUCAGAUUCUGGUGUAUUUGCGAAUUCUGCUGU | 0.932
GGGGGCCACAGCAGAAGCGUUCACGUCGCGGCCCCUGUCAGAUUCUGGUGUAUGUGCGAAUUCUGCUGU | 0.677
GGGGGCCACAGCAGAAGCGUUCACGUCGCGGCCCCUGUCAGAUUCUGGUGUAUCCGCGAAUUCUGCUGU | 0.561
GGGGGCCACAGCAGAAGCGUUCACGUCGCGGCCCCUGUCAGAUUCUGGUGUAUCAGCGAAUUCUGCUGU | 0.696

Source: the RNAGym collection of RNA variant scans (doi:10.7554/elife.80360)
